This passage reports Kd results from patent publication US20250263441A1 (published 2025).

In the test the target is Toll-Like Receptor 2 (TLR2). Briefly: SPR. (In general: Surface plasmon resonance follows binding to a sensor surface in real time, without labels.)
Toll-Like Receptor 2 (TLR2), sequence (chain, as listed by the source): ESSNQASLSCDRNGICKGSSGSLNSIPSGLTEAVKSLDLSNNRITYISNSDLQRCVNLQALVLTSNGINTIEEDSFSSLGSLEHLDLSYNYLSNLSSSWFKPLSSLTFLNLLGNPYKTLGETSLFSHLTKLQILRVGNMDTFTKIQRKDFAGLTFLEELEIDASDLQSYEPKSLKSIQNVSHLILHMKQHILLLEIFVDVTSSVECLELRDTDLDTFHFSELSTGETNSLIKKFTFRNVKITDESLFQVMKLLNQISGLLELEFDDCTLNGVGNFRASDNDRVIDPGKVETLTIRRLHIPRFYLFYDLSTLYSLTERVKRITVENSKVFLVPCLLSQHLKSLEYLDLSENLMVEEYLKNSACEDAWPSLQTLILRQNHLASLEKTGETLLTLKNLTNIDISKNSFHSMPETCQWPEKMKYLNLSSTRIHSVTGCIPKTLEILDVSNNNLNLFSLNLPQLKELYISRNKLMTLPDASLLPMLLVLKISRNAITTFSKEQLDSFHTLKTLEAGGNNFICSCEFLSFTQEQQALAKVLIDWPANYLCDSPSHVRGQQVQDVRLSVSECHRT

B1: AMP5-T7A (peptide)
peptide: GIFKKIAGKLFKWIK
notes: Chemically synthesized variant of AMP5
Broadly, the Kd is a measure of binding affinity in units of concentration. Lower therefore signals higher affinity. Molecule B1 showed a Kd of 373 nM.

B2: AMP5 (peptide)
peptide: GIFKKITGKLFKWIK
notes: also called polypeptide 1
For B2, binding was characterised by a dissociation constant (Kd) of 543 nM.

B3: AMP5-L10C (peptide)
peptide: GIFKKITGKCFKWIK
notes: as for B1
Molecule B3 yielded a Kd of 834 nM.
